From patent US20020155503

Experiments:
[1] = target: Serine-tyrosine-phenylalanine-histamine-glutamine
[2] = target: T1, Lys-Lys-Lys-Lys-Ala-Asp-Glu-Glu-Asp-Tyr-Phe-Ile-Pro-Pro-Ala
T1 chain: KKKKADEEDYFIPPA

B1: recombinant form of the Abelson murine leukaemia virus protein tyrosine kinase v-Abl (protein)
chain: YITPVNSLEKHSWYHGPVSRNAAEYLLSSGINGSFLVRESESSPGQRSISLRYEGRVYHYRINTASDGKLYVSSESRFNTLAELVHHHSTVADGLITTLHYPAPKRNKPTIYGVSPNYDKWEMERTDITMKHKLGGGQYGEVYEGVWKKYSLTVAVKTLKEDTMEVEEFLKEAAVMKEIKHPNLVQLLGVCTREPPFYIITEFMTYGNLLDYLRECNRQEVSAVVLLYMATQISSAMEYLEKKNFIHRDLAARNCLVGENHLVKVADFGLSRLMTGDTYTAHAGAKFPIKWTAPESLAYNKFSIKSDVWAFGVLLWEIATYGMSPYPGIDLSQVYELLEKDYRMERPEGCPEKVYELMRACWQWNPSDRPSFAEIHQAFETMFQESSISDEVEKELGKRG
- phosphorylation of library peptide, anti-phosphotyrosine ELISA (absorbance at 450 nm); preferred substrate of Library Sub-Set 4 [1]: The active site substrate recognition substrate for this enzyme for this Sub-Set was Serine-tyrosine-phenylalanine-histamine-glutamine [SEQ ID No. 21]

B2: recombinant form of the human CSK enzyme (protein)
chain: MSAIQAAWPSGTECIAKYNFHGTAEQDLPFCKGDVLTIVAVTKDPNWYKAKNKVGREGIIPANYVQKREGVKAGTKLSLMPWFHGKITREQAERLLYPPETGLFLVRESTNYPGDYTLCVSCDGKVEHYRIMYHASKLSIDEEVYFENLMQLVEHYTSDADGLCTRLIKPKVMEGTVAAQDEFYRSGWALNMKELKLLQTIGKGEFGDVMLGDYRGNKVAVKCIKNDATAQAFLAEASVMTQLRHSNLVQLLGVIVEEKGGLYIVTEYMAKGSLVDYLRSRGRSVLGGDCLLKFSLDVCEAMEYLEGNNFVHRDLAARNVLVSEDNVAKVSDFGLTKEASSTQDTGKLPVKWTAPEALREKKFSTKSDVWSFGILLWEIYSFGRVPYPRIPLKDVVPRVEKGYKMDAPDGCPPAVYEVMKNCWHLDAAMRPSFLQLREQLEHIKTHELHL
- phosphorylation of library peptide, anti-phosphotyrosine ELISA (absorbance at 450 nm); preferred substrate of the sub-set (Tyr-Pro-Ile-Glu-Val): Library Sub-Set 5 Tyr-Pro-Ile-Glu-Val [SEQ ID No. 20]
- phosphorylation of library peptide, anti-phosphotyrosine ELISA (absorbance at 450 nm); preferred substrate of the sub-set (Asp-Glu-Glu-Glu-Tyr): Library Sub-Set 1 Asp-Glu-Glu-Glu-Tyr [SEQ ID No. 16]
- phosphorylation of library peptide, anti-phosphotyrosine ELISA (absorbance at 450 nm); preferred substrate of the sub-set (Asp-Glu-Glu-Tyr-Phe): Library Sub-Set 2 Asp-Glu-Glu-Tyr-Phe [SEQ ID No. 17]
- phosphorylation of library peptide, anti-phosphotyrosine ELISA (absorbance at 450 nm); preferred substrate of the sub-set (Asp-Glu-Tyr-His-Asn): Library Sub-Set 3 Asp-Glu-Tyr-His-Asn [SEQ ID No. 18]
- phosphorylation of library peptide, anti-phosphotyrosine ELISA (absorbance at 450 nm); preferred substrate of the sub-set (Asp-Tyr-His-Leu-Phe): Library Sub-Set 4 Asp-Tyr-His-Leu-Phe [SEQ ID No. 19]

B3: catalytic domain of human ZAP-70 (amino acid 306-615), recombinant, from baculovirus-infected Sf9 cells (protein)
chain: RPMPMDTSVYESPYSDPEELKDKKLFLKRDNLLIADIELGCGNFGSVRQGVYRMRKKQIDVAIKVLKQGTEKADTEEMMREAQIMHQLDNPYIVRLIGVCQAEALMLVMEMAGGGPLHKFLVGKREEIPVSNVAELLHQVSMGMKYLEEKNFVHRDLAARNVLLVNRHYAKISDFGLSKALGADDSYYTARSAGKWPLKWYAPECINFRKFSSRSDVWSYGVTMWEALSYGQKPYKKMKGPEVMAFIEQGKRMECPPECPPELYALMSDCWIYKWEDRPDFLTVEQRMRACYYSLASKVEGPPGSTQKAE
- Km (33P-γ-ATP phosphorylation of the biotin peptide, streptavidin filter plate capture) (Biotin-εAHA-DEEDYFE(Nle)): 15.79 µM
- protein kinase activity against the peptide substrate (column fractions) [2]: ZAP-70 fractions identified by protein kinase activity against the peptide substrate Lys-Lys-Lys-Lys-Ala-Asp-Glu-Glu-Asp-Tyr-Phe-Ile-Pro-Pro-Ala
